# Source: patent US20250355001A1 (GTINVENT, published 2025)
# Where two headings read alike, the source gives them in different places.
# T1: biotinylated tau peptide 412-441 (N-terminal biotin)
# T1 peptide: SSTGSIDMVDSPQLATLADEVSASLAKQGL
# Assays:
# [1] = molecular target: T2, full length human tau protein 2N4R (hT40) (human, UniProt P10636 1-758); assay: hT40 ELISA
# T2 construct: recombinant; also called T441
# Target sequence in this assay (P10636 other isoform, or with tags, fused parts or gaps limits assumed): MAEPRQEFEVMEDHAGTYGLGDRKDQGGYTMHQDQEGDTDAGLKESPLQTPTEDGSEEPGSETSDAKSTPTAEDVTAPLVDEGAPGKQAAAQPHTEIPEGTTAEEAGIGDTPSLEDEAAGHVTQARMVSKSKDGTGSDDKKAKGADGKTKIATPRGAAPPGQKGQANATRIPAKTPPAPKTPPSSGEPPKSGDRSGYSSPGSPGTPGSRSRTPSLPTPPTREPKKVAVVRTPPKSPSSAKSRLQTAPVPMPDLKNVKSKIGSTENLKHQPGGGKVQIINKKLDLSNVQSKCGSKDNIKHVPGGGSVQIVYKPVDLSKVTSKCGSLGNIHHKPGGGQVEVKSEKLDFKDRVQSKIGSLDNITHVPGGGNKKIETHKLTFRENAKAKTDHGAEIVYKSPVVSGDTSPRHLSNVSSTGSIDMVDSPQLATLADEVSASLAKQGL
# dGAE (tau 297-391) [2] = molecular target: T3, dGAE (tau 297-391) (human, UniProt P10636 614-708); assay: direct ELISA
# T3 construct: monomer; also called dGAE95
# dGA (tau 297-390) [3] = molecular target: T4, dGA (tau 297-390) (human, UniProt P10636 614-707); assay: ELISA
# Procedure: (§1) A series of binding ELISA was performed using various truncated versions of the tau protein and 13mer peptide libraries spanning the entire hT40 molecule for mapping the epitopes of anti-tau scAbs (Full list of protein antigens used is given in Table 14). In general, ELISA plates were coated with 1 μg/ml hT40 or dGA or dGAE or other truncated versions of the protein and in the case of biotinylated peptides, plates were coated with 5 μg/ml Streptavidin followed by 1 μg/ml biotinylated peptide. The plates were blocked with 2% MPBS and scAb samples added at desired starting concentrations and double diluted across the plate. Binding was detected using anti-Human C Kappa HRP conjugated secondary antibody and the resulting immunoreaction was developed and absorbance values measured as described above.
# aggregated dGAE [4] = molecular target: T5, aggregated dGAE (human, UniProt P10636 614-708, limits assumed); assay: capture ELISA, mAb coated at 1 µg/ml, aggregates titrated, S1G2 scAb detection
# T5 construct: dGAE aggregated in vitro with DTT, 700 rpm, 37 C, 24 h; also called dGAE aggregates; dGAE agg
# dGAE (tau 297-391) [5] = molecular target: T3, dGAE (tau 297-391); assay: SPR, scAb captured, tau analyte
# Procedure: (§2) The capture antibody was diluted 1/100 in 10 mM Sodium acetate buffer pH 5.0 and passed over the activated chip surface for a period of at least 420 s. Final ligand immobilisation levels over 12,000 RU were deemed to be satisfactory.
# (§3) The scAb to be tested was added only to flow cell 2 so that flow cell 1 could act as a control to subtract any interaction with the analyte and the chip surface. […] The multi-cycle protocol was as follows-Three start-up cycles composed of an initial capture, to the desired level, of the scAb to be tested was performed followed by a 30 s injection of glycine buffer pH 2.0 after each cycle to regenerate the chip surface. […] The target was added for a 120 s association period and 420 s dissociation period followed by another regeneration, 30 s injection of glycine buffer pH 2.0 in between each cycle.
# (§4) The single cycle kinetics protocol was similar and utilised the same level of scAb capture. […] In single cycle kinetics the regeneration step was performed only after the final analyte concentration was added. Binding responses were analysed in Biacore X100 evaluation software and data fitted to a 1:1 binding model to obtain kinetic and affinity characterisation.
# Target sequence in this assay (P10636 614-708 limits assumed): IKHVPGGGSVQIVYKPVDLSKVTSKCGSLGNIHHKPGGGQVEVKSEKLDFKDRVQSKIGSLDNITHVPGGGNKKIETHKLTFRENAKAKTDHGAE
# [6] = molecular target: T2, full length human tau protein 2N4R …; assay: direct ELISA
# Procedure: as §1
# dGA (tau 297-390) [7] = molecular target: T4, dGA (tau 297-390); assay: direct ELISA
# Procedure: as §1
# Target sequence in this assay (P10636 614-707 limits assumed): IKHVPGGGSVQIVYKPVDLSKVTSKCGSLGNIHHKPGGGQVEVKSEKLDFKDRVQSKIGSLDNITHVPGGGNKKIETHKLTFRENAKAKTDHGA
# [8] = molecular target: T2, full length human tau protein 2N4R …; assay: SPR, scAb captured, tau analyte
# Procedure: as §2, §3, §4
# Target sequence in this assay (P10636 other isoform, or with tags, fused parts or gaps limits assumed): as the sequence (P10636 other isoform, or with tags, fused parts or gaps limits assumed) above
# tau fragment 1-155 = tau fragment 1-155 (human, UniProt P10636 1-472); assay: direct ELISA
# Procedure: as §1
# [9] = molecular target: T2, full length human tau protein 2N4R …; assay: hT40 ELISA; remark: listed apart in the source
# Target sequence in this assay (P10636 other isoform, or with tags, fused parts or gaps limits assumed): as above
# [10] = molecular target: T2, full length human tau protein 2N4R …; assay: SPR, summary table
# Procedure: as §2, §3, §4
# Target sequence in this assay (P10636 other isoform, or with tags, fused parts or gaps limits assumed): as above
# [11] = molecular target: T1, biotinylated tau peptide 412-441; assay: ELISA on biotinylated 412-441 peptide
# Procedure: as §1
# [12] = molecular target: T2, full length human tau protein 2N4R …; assay: hT40 ELISA; remark: listed apart in the source
# Procedure: as §1
# [13] = molecular target: T2, full length human tau protein 2N4R …; assay: Biacore
# Procedure: as §2, §3, §4
# Target sequence in this assay (P10636 other isoform, or with tags, fused parts or gaps limits assumed): as above
# [14] = molecular target: T2, full length human tau protein 2N4R …; assay: sandwich ELISA, S1D12 mAb capture, scAb detection
# Procedure: Full length tau (hT40), at 1 μg/ml starting concentration was added to designated wells and double diluted across rest of the plates and left to incubate at R/T for 1 h. A series of detection scAbs with varying epitope recognition properties were added at 10 μg/ml to designated wells (FIG. 22). For colourimetric detection HRP conjugated anti-HuCk secondary antibody was used and the resulting immunoreaction was developed and absorbance at 450 nm measured as described previously. Cut-off point for a positive binding event was an absorbance value of 0.3 following background subtraction. In order to enhance the assay sensitivity, a chemiluminescent detection method was adopted where 50 μL SuperSignal ELISA Femto Substrate (Thermo Scientific) was added to each well following incubation with anti-HuCK HRP antibody and subsequent washing. The luminescence was read using Clariostar Plus microplate reader. A further modification to this protocol was done where various detection scAbs were directly conjugated with HRP and detected using chemiluminescent protocol as before.
# Target sequence in this assay (P10636 other isoform, or with tags, fused parts or gaps limits assumed): as above
# aggregated dGAE [15] = molecular target: T5, aggregated dGAE; assay: ELISA, direct immobilisation, SDS + Triton treated dGAE aggregates
# Target sequence in this assay (P10636 614-708 limits assumed): as the sequence (P10636 614-708 limits assumed) above
# aggregated dGAE [16] = molecular target: T5, aggregated dGAE; assay: sandwich ELISA, S1D12 mAb capture, SDS + Triton treated dGAE aggregates
# Procedure: For aggregation, 1000 μL 100 μM dGAE+10 μL 10 mM DTT was added to a ‘LoBind’ microfuge tubes and agitated at 700 RPM/37° C. for 24 hours. Resulting sample centrifuged at 17,000×g/4° C. for 60 min and supernatant discarded to remove left over monomer. Pellet resuspended in half the original volume for future experiments and hereafter referred to as ‘aggregates’. 1 μl of aggregates was added to 1 ml of PBS and SDS was added to a final concentration of 1% (w/v). This was left to incubate on lab bench for 1 h with gentle agitation every 15 minutes. In order to neutralize the SDS effect on ELISA, Triton X-100 added to a final concentration of 3% (v/v) and mixed gently by pipetting to prevent any bubble formation. […] Similarly aggregates treated with only SDS or Triton X-100, untreated aggregates, dGAE monomers treated with only SDS or SDS+Titon X-100 were also added to designated wells as controls. All samples were then double diluted across the plate in final volumes of 100 μl. The final column was left with no protein to act as a blank.
# Target sequence in this assay (P10636 614-708 limits assumed): as above
# [17] = molecular target: T2, full length human tau protein 2N4R …; assay: hT40 ELISA; remark: listed apart in the source
binder,measurement,setting,value
"S1B1 scAb (scFv, not shown: small tags and cut ends, scAb) scFv: QVQLQESGPSLVKPSQTLSLTCTVSGFSLSSNSVGWVRQAPGKAPEWVAGIDTDGEEGYNPALNSRLSITRDTSKSQVSLSLSSVTSEDTAVYYCVRSYRTDGLAYGYVQAIDYWGPGLLVTVSSEGKSSGASGESKVDDQAVLTQPSSVSGSLGQRVSITCSGSFIGISSVGWFQQLPGSGLRTVIVASDGRPSGVPDRFSNSKSGNTATLTISSLQAEDEADYFCGSSDRTQYTGVFGSGTRLTVLG",binding result,[1],binds
same,binding result,dGAE (tau 297-391) [2],binds
same,binding result,dGA (tau 297-390) [3],binds
"S1D9 scAb (scFv, not shown: small tags and cut ends, scAb) scFv: QVQLQESGPSLVKPSQTLSLTCTVSGFSLTSNSVGWVRQAPGKAPEWVAGIDSDGEEGYNPALNSRLSITRDTSKNQVSLSLSRVTSEDTAVYYCGRTYRTDGYAYGYVQAIDYWGPGLLVTVSSEGKSSGASGESKVDDRVMLTQPPSVSGSPGQTVSITCSGSFIGISSVGWFQQLPGSGLRTVIFASDGRPSGVPDRFSNSKSGNTATLTISSLQAEDEADYFCGSSDRTQYTGVFGSGTRLTVLS",EC50 (read off the curve),[1],~1 µg/mL
"E2E8 mAb (antibody, mouse IgG2a, V domains shown, sheep-mouse IgG2a chimeric mAb) VH: QVQLQESGPSLVKPSQTLSLTCTVSGFSLTDRGVAWVRQAPGKALEWVGTMRSGGTIDYNPALKSRLSITRDTSKSQVFLSLSSVTTEDMAMYYCARGYLSGDRYAWGRGLLVTVSS VL: QAVLTQPSSVSKSLGQSVSIACSGSRSDIGYGNYVSWFQQIPGSAPKLLIYDTNTRASGVPDRFSGARSGNTATLTINSLQAEDEADYYCANIDSSRSHLFGSGTRLTVLG",EC50 (read off the curve),aggregated dGAE [4],~80 nM
"E1E8 scAb (scFv, not shown: small tags and cut ends, scAb) scFv: QVQLQESGPSLVKPSQTLSLTCTVSGFSLTDWGVAWVRQAPGKALEWLGTMRSGGTTDDNPALKSRLSITRDTSKSQVSLSLSSVTTEDMAMYYCARGYLSGVHYAWGRGLLVTVSSEGKSSGASGESKVDDQAVLTQPSSVSGSLGQSVSITCSGSSSNVGDGRYVSWFQQVPGSAPKLLIYDTTSRASGVPDRFSGSRSGNTATLIITSLQAEDEADYYCASIDSGNNLLFGSGTRLTVLG",Kd,dGAE (tau 297-391) [5],6.3 nM
same,koff,dGAE (tau 297-391) [5],0.0014 s⁻¹
same,kon,dGAE (tau 297-391) [5],154000 M⁻¹ s⁻¹
same,binding result,[6],no binding (tested: 25 ug/ml)
same,binding result,dGA (tau 297-390) [7],no binding (tested: 25 ug/ml)
"3bF4 scAb (scFv, not shown: small tags and cut ends, scAb) scFv: QVQLQESGPSLVKPSQTLSLTCTVSGFSLSSNGVGWVRQAPGKVPEWLGDISSVGKKYANPALKSRLSFTRDTSKSQVSLSLSSVTTEDTAVYYCVKCRDGGVTYGYDIDYWGPGLLVTVSSEGKSSGASGESKVDDQAVLTQPSSVSKSTGQTVSITCSGSSSNVGLRNYVTWFQQVPGSAPKLLIYGATSRASGIPDRFSGSRSGNTATLIISSLQAEDEADYYCASADTNDGGVFGSGTRLTVLG",Kd,[8],140 nM
same,koff,[8],0.0153 s⁻¹
same,kon,[8],109000 M⁻¹ s⁻¹
same,EC50 (read off the curve),tau fragment 1-155,~1 µg/mL
"412E10 scAb (scFv, not shown: small tags and cut ends, scAb) scFv: QVQLQESGPSLVKPSQTLSLTCTVSGFSVISDSVAWVRQAPGKVPEWLGASGSSGNKYYNPALKSRLSITRDTSKSQVSLSLSSVTTEDTAVYYCARGIIAGVDVWGRGLLVTVSSEGKSSGASGESKVDDQAVLTQPSSVSGSLGQRVSITCSGSSSNVGYGNYVGWYQQVPGSAPKLLIYGTAIRASGVPDRFSGSRSGDTATLTITSLQAEDEADYYCASYQSNYAFFGSGTRLTVLG",Kd,[8],3.16 nM
same,koff,[8],0.00085 s⁻¹
same,kon,[8],271000 M⁻¹ s⁻¹
same,EC50 (read off the curve),[9],~1 µg/mL
same,Kd,[10],3.16 nM
same,EC50 (read off the curve),[11],~0.4 µg/mL
same,EC50 (read off the curve),[12],~1 µg/mL
same,Kd,[13],3.3 nM
same,LoD chemiluminescence detection,[14],0.37 ng/mL
same,LoD colourimetric detection,[14],20 ng/mL
"CA12 scAb (scFv, not shown: small tags and cut ends, scAb) scFv: QVQLQGSGPSLVKPSQTLSLTCTVSGFSFDSYYVGWVRQAPGKALEWLGNIYSTGRAFYNPALKSRLSITRDTSKSQVSLSVSSVTIEDTALYYCVRGSYYHGGGNGMVDFFDYWSPGLLVTVSSEGKSSGASGESKVDDQVVRTQPSSVSGSLGQRVSITCSGSSSNVGYGNYVGWFQQVPGSAPKLLIYAATSRASGVPDRFSGSRSGNTATLTIDSLQAEDEADYYCSSYQRGNTGVFGSGTRLTVLG",LoD,aggregated dGAE [15],16 ng/mL
same,LoD,aggregated dGAE [16],2 ng/mL
same,EC50 (read off the curve),[17],~0.02 µg/mL
"3aB7 scAb (scFv, not shown: small tags and cut ends, scAb) scFv: QVQLQESGPSLVKPSQTLSLTCTVSGFSLTSNGVGWVRQAPGKVPEWVGDKSSAGKTYGNPALKSRLSITRDTSKSQVSLSLSSVTTEDTAVYYCVRCRDGGVTYGYDVDYWGPGLLVTVSSEGKSSGASGESKVDDQAVLTQPSSVSKSLGQSVSITCSGSSSNVGYGDVVSWFQQFPGSAPKLLIFGTTTRASGVPDRFSGSRSGNAATLTINSLQAEDEADYYCASFDSDSGGIAGSGTRLTVLG",Kd,[8],69 nM
same,koff,[8],0.0143 s⁻¹
same,kon,[8],207000 M⁻¹ s⁻¹
same,EC50 (read off the curve),tau fragment 1-155,~0.8 µg/mL
